The values below come from patent US20040038299A1 (Pfizer, published 2004).

The target in the experiment is T1, N-terminal FLAG-tagged full length LTβR (UniProt P36941 31-435).
T1 construct: whole, on cells; Overexpressed in HEK293 cells, immunoprecipitated from lysate with M2 beads; also called Flag-tagged LTβR; pFlag-CMV2-LTβR; not shown: N-terminal FLAG tag from pFLAG-CMV2
Kind of experiment: co-immunoprecipitation in transfected HEK293 cells, Western blot. As for the experimental part: For immunoprecipitation, 1×10⁸ U937 cells were treated with FLAG-LIGHT at 20 ng/ml for different time or left untreated. Cells were then harvested and lysed in 4 ml of lysis buffer (see above). Cell debris was removed by centrifugation at 14,000+ g for 10 min and resulting lysate was pre-cleared with Gamma Binding beads (Pharmacia Biotech) for 1 hour at 4° C. Then 20 µl of M2 beads were added to cell lysate and incubated at 4° C. for 3 hours. After binding, beads were washed five times with lysis buffer. Immune complexes bound to the beads were eluted with sample buffer, resolve on 4-12% SDS-PAGE gels, transferred to PVDF membrane and probed with TRAF2, TRAF3 or cIAP1 antibody. Signals were detected with HRP-conjugated secondary antibody and ECL detection kits (Amersham Pharmacia Biotech). […] The presence of Smac, LTβR, TRAF2 and cIAP1 in the immune complex were then analyzed by Western blots.
Although two peptides from Smac in the LIGHT-LTβR complex were detected by mass spectrometry, an endogenous association was not detected using Smac antibodies (Alexis Biochemicals or Cell Signaling Technology). […] Smac was expressed as a C-terminal HA-tagged fusion protein and appeared as a doublet of 28 kDa and 23 kDa on the Western blot. […]
A general note: A western blot detects proteins with antibodies after separation by electrophoresis.

T1 sequence (P36941 31-435): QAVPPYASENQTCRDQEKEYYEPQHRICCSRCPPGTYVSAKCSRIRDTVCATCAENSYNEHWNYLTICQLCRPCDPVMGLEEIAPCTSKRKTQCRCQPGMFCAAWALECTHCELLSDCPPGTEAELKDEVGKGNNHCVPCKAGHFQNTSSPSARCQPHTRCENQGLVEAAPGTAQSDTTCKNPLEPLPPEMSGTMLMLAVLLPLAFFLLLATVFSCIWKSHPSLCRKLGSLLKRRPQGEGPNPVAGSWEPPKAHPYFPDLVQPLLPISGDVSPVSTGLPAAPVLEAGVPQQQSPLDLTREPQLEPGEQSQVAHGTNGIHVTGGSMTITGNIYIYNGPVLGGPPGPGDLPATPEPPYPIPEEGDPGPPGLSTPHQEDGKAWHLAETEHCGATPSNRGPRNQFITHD

B1: Δ76 deletion mutant of Smac with a C-terminal HA-tag (other)
chain: RAVSLVTDSTSTFLSQTTYALIEAITEYTKAVYTLTSLYRQYTSLLGKMNSEEEDEVWQVIIGARAEMTSKHQEYLKLETTWMTAVGLSEMAAEAAYQTGADQASITARNHIQLVKLQVEEVHQLSRKAETKLAEAQIEELRQKTQEEGEERAESEQEAYLRED
notes: also called ?76Smac; ?76 Smac; not shown: C-terminal HA tag
Regarding B1, the binding result is given as “no binding”.
